The values below come from paper PMC5052650, “Characterization of the DNA dependent activation of human ARTD2/PARP2”.

For data set [1], the target named is T1, ARTD2FL (Homo sapiens, UniProt Q9UGN5 1-583). Put plainly: fluorescence polarization; Kd range 10-63 nM over oligos; 1:1 to 4:1; FP: 10 mM Hepes pH 8.0, 150 mM NaCl, 0.1 mM TCEP, 0.1 mM EDTA, 10% glycerol, 25 C, 5 nM DNA (250 nM for stoichiometry); EMSA: 50 mM Hepes, 300 mM NaCl, 0.1 mM EDTA, 10% glycerol, 0.1 mM TCEP, on ice, 1 uM DNA; SEC-SAXS: 20 mM Hepes pH 7.5, 300 mM NaCl, 5% glycerol. As to conditions: protein: recombinant, tags: His6-thioredoxin removed by TEV (QS left), label: fluorescein. On the technique in general: Fluorescence polarisation rises when a labelled molecule tumbles more slowly, as on binding a larger partner.
T1 sequence (Q9UGN5 whole entry): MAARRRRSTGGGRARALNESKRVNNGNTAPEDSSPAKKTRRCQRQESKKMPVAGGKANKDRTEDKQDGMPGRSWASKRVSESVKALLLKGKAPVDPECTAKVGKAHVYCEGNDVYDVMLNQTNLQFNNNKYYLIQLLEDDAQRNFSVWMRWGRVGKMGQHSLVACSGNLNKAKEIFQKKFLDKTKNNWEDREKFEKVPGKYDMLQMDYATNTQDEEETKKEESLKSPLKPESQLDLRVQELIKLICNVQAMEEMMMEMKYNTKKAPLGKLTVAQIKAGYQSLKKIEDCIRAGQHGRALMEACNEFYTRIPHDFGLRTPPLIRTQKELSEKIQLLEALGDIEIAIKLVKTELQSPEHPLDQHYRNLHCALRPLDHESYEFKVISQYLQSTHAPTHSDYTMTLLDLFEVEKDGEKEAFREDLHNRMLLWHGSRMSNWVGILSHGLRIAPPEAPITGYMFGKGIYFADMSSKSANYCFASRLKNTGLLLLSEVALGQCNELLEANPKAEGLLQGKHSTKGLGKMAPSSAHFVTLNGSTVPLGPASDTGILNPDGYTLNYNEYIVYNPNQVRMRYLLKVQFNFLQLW

Data set [2] has as its target T1, ARTD2FL. In words: EMSA; some free DNA even at 4:1; FP: 10 mM Hepes pH 8.0, 150 mM NaCl, 0.1 mM TCEP, 0.1 mM EDTA, 10% glycerol, 25 C, 5 nM DNA (250 nM for stoichiometry); EMSA: 50 mM Hepes, 300 mM NaCl, 0.1 mM EDTA, 10% glycerol, 0.1 mM TCEP, on ice, 1 uM DNA; SEC-SAXS: 20 mM Hepes pH 7.5, 300 mM NaCl, 5% glycerol. Particulars: protein: recombinant; tags: His6-thioredoxin removed by TEV (QS left); nicked dumbbell, two hairpins, 1 strand.

In data set [3] the target is T1, ARTD2FL. Put plainly: EMSA; no free DNA only after 4:1; FP: 10 mM Hepes pH 8.0, 150 mM NaCl, 0.1 mM TCEP, 0.1 mM EDTA, 10% glycerol, 25 C, 5 nM DNA (250 nM for stoichiometry); EMSA: 50 mM Hepes, 300 mM NaCl, 0.1 mM EDTA, 10% glycerol, 0.1 mM TCEP, on ice, 1 uM DNA; SEC-SAXS: 20 mM Hepes pH 7.5, 300 mM NaCl, 5% glycerol. Particulars: protein: recombinant; tags: His6-thioredoxin removed by TEV (QS left); blunt, palindromic, 2 copies. In general terms: In EMSA bound probe runs differently from free probe, usually more slowly.

Data set [4] has as its target T1, ARTD2FL. In words: fluorescence polarization; affinity similar to oligo 40; FP: 10 mM Hepes pH 8.0, 150 mM NaCl, 0.1 mM TCEP, 0.1 mM EDTA, 10% glycerol, 25 C, 5 nM DNA (250 nM for stoichiometry); EMSA: 50 mM Hepes, 300 mM NaCl, 0.1 mM EDTA, 10% glycerol, 0.1 mM TCEP, on ice, 1 uM DNA; SEC-SAXS: 20 mM Hepes pH 7.5, 300 mM NaCl, 5% glycerol. As to conditions: protein: recombinant; tags: His6-thioredoxin removed by TEV (QS left); label: fluorescein.

Data set [5] deals with T1, ARTD2FL. Put plainly: fluorescence polarization; affinity similar to oligo 39; FP: 10 mM Hepes pH 8.0, 150 mM NaCl, 0.1 mM TCEP, 0.1 mM EDTA, 10% glycerol, 25 C, 5 nM DNA (250 nM for stoichiometry); EMSA: 50 mM Hepes, 300 mM NaCl, 0.1 mM EDTA, 10% glycerol, 0.1 mM TCEP, on ice, 1 uM DNA; SEC-SAXS: 20 mM Hepes pH 7.5, 300 mM NaCl, 5% glycerol. As to conditions: protein: recombinant; tags: His6-thioredoxin removed by TEV (QS left); label: fluorescein.

Data set [6] addresses T1, ARTD2FL. Put plainly: EMSA; FP: 10 mM Hepes pH 8.0, 150 mM NaCl, 0.1 mM TCEP, 0.1 mM EDTA, 10% glycerol, 25 C, 5 nM DNA (250 nM for stoichiometry); EMSA: 50 mM Hepes, 300 mM NaCl, 0.1 mM EDTA, 10% glycerol, 0.1 mM TCEP, on ice, 1 uM DNA; SEC-SAXS: 20 mM Hepes pH 7.5, 300 mM NaCl, 5% glycerol. As to conditions: protein: recombinant; tags: His6-thioredoxin removed by TEV (QS left).

The target in data set [7] is T1, ARTD2FL. Put plainly: fluorescence polarization; Kd range 10-63 nM over oligos; binds as monomer (1:1); FP: 10 mM Hepes pH 8.0, 150 mM NaCl, 0.1 mM TCEP, 0.1 mM EDTA, 10% glycerol, 25 C, 5 nM DNA (250 nM for stoichiometry); EMSA: 50 mM Hepes, 300 mM NaCl, 0.1 mM EDTA, 10% glycerol, 0.1 mM TCEP, on ice, 1 uM DNA; SEC-SAXS: 20 mM Hepes pH 7.5, 300 mM NaCl, 5% glycerol. As to conditions: protein: recombinant; tags: His6-thioredoxin removed by TEV (QS left); label: fluorescein; hairpin, blunt.

The target of a further data set is ARTD2CAT (Homo sapiens, UniProt Q9UGN5 235-583). In words: EMSA; FP: 10 mM Hepes pH 8.0, 150 mM NaCl, 0.1 mM TCEP, 0.1 mM EDTA, 10% glycerol, 25 C, 5 nM DNA (250 nM for stoichiometry); EMSA: 50 mM Hepes, 300 mM NaCl, 0.1 mM EDTA, 10% glycerol, 0.1 mM TCEP, on ice, 1 uM DNA; SEC-SAXS: 20 mM Hepes pH 7.5, 300 mM NaCl, 5% glycerol. As to conditions: protein: recombinant; tags: His6 removed by TEV (SM left); hairpin, blunt.
ARTD2CAT, sequence (Q9UGN5 235-583): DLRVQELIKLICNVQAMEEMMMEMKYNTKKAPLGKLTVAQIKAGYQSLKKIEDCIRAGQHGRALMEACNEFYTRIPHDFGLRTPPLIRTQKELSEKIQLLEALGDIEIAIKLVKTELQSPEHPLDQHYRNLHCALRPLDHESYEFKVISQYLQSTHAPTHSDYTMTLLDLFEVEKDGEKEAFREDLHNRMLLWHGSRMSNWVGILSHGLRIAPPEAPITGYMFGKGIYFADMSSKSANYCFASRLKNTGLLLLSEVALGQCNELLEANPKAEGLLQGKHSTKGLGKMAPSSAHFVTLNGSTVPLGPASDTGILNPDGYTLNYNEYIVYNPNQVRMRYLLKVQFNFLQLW

A further data set addresses ARTD2WGR+CAT (Homo sapiens, UniProt Q9UGN5 71-583). The description is as above. Particulars: protein: recombinant; tags: His6-ZB removed by TEV (QS left); hairpin, blunt.
In data set [8] the target is T1, ARTD2FL. Put plainly: EMSA; no free DNA above 2:1; FP: 10 mM Hepes pH 8.0, 150 mM NaCl, 0.1 mM TCEP, 0.1 mM EDTA, 10% glycerol, 25 C, 5 nM DNA (250 nM for stoichiometry); EMSA: 50 mM Hepes, 300 mM NaCl, 0.1 mM EDTA, 10% glycerol, 0.1 mM TCEP, on ice, 1 uM DNA; SEC-SAXS: 20 mM Hepes pH 7.5, 300 mM NaCl, 5% glycerol. Particulars: protein: recombinant; tags: His6-thioredoxin removed by TEV (QS left); hairpin, blunt.

ARTD2WGR+CAT, sequence (Q9UGN5 71-583): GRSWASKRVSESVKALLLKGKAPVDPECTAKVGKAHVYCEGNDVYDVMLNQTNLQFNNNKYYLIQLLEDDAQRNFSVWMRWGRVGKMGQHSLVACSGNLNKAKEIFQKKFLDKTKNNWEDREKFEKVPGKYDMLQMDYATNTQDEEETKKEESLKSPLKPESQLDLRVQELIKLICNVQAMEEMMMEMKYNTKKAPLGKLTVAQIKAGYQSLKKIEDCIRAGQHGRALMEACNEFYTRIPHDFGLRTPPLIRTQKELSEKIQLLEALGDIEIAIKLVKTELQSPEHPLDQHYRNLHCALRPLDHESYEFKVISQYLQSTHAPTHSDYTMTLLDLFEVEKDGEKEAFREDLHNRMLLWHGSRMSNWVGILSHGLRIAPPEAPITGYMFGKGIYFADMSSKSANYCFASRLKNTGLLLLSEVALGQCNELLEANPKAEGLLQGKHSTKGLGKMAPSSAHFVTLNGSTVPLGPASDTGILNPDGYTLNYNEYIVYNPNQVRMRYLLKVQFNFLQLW

B1: oligonucleotide 38 (labelled 18) (dsDNA)
DNA 1: GCCTTAGCGCGTATACGCGCTAAGGC
DNA 2: GCCTTAGCGCGTATACGCGCTAAGGC
modifications: 5'-phosphate
Regarding B1, the binding result with ARTD2FL [1] (blunt, palindromic, 2 copies) is on record as “binds”.

For the molecule GGAAGTTCTTTTGAACTTCCTCGAAGCTTTTGCTTCGA (structured_DNA, 5'-phosphate) [oligonucleotide 2], the binding result with ARTD2FL [2] is “binds”. Take GGAAGTTCTTTTGAACTTCCTCGAAGCTTTTGCTTCGA (structured_DNA, 5'-phosphate) [oligonucleotide 41 (labelled 2)]: the binding result with ARTD2FL [1] (nicked dumbbell, two hairpins, 1 strand) was “binds”.

B2: oligonucleotide 18 (dsDNA)
DNA 1: GCCTTAGCGCGTATACGCGCTAAGGC
DNA 2: GCCTTAGCGCGTATACGCGCTAAGGC
modifications: 5'-phosphate
With B2, the binding result with ARTD2FL [3] was “binds”.

B3: oligonucleotide 39 (labelled 19) (dsDNA)
DNA 1: CCAGGACCAGGGCGCAGATCACCTTGTTCTCCA
DNA 2: TGGAGAACAAGGTGATCTGCGCCCTGGTCCTGG
On to B3, for which the binding result with ARTD2FL [4] was “binds”.

B4: oligonucleotide 40 (labelled 20) (dsDNA)
DNA 1: CCAGGACCAGGGCGCAGATCACCTTGTTCTCCA
DNA 2: TGGAGAACAAGGTGATCTGCGCCCTGGTCCTGG
modifications: 5'-phosphate
Consider B4, for which the binding result in the data set with ARTD2FL [5] is “binds”.

B5: oligonucleotide 20 (dsDNA)
DNA 1: CCAGGACCAGGGCGCAGATCACCTTGTTCTCCA
DNA 2: TGGAGAACAAGGTGATCTGCGCCCTGGTCCTGG
modifications: 5'-phosphate
In the case of B5, in the data set with ARTD2FL [6], the binding result is listed as “binds”. With GGAAGTTCTTTTGAACTTCC (structured_DNA, 5'-phosphate) [oligonucleotide 42 (labelled 6)], the binding result with ARTD2FL [7] is reported as “binds”. Consider GGAAGTTCTTTTGAACTTCC (structured_DNA, 5'-phosphate) [oligonucleotide 6], for which the binding result with ARTD2CAT was “no binding”; with ARTD2WGR+CAT it was “binds”; in the data set with ARTD2FL [8], “binds”.
